For one molecule, Kd results are on record in article PMC4569521 (Journal of molecular biology, 2015).

Where no end group is shown, it is not given here. fluorescein = fluorescein label at the N-terminus

In the experiment the target is T1, N-domain of ClpX (residue 1–64) (E. coli, UniProt P0A6H1 1-64).
T1 sequence (looked up): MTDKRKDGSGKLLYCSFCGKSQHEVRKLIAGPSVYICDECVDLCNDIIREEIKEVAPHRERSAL
The experiment is described as follows: fluorescence polarisation. (In general: Polarisation of emitted light reports the rotation of a fluorescent probe.)

fluorescein-ESRIVGIFRPSGNTERVKNQ [fluorescein-labeled E-tag peptide (MuA residues 614–633)]: the Kd (usually the equilibrium constant for the complex coming apart) was around 380 µM.
